{
  "source": "paper PMC6362308",
  "target": "taxol-stabilized microtubules",
  "sequence (P68363 whole entry, chain 1 of 2)": "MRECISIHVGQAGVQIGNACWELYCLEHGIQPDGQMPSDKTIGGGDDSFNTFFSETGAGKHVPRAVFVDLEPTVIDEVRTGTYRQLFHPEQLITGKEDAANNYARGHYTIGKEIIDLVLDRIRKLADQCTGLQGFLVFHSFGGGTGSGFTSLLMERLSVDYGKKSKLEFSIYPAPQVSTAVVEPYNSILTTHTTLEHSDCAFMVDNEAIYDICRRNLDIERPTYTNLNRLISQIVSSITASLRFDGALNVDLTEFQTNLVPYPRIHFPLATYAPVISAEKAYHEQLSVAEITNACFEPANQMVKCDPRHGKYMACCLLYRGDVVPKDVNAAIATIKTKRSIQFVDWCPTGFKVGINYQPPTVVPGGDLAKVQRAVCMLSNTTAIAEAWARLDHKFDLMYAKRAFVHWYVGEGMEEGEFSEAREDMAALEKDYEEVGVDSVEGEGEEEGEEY",
  "sequence (A8K068 whole entry, chain 2 of 2, further chain)": "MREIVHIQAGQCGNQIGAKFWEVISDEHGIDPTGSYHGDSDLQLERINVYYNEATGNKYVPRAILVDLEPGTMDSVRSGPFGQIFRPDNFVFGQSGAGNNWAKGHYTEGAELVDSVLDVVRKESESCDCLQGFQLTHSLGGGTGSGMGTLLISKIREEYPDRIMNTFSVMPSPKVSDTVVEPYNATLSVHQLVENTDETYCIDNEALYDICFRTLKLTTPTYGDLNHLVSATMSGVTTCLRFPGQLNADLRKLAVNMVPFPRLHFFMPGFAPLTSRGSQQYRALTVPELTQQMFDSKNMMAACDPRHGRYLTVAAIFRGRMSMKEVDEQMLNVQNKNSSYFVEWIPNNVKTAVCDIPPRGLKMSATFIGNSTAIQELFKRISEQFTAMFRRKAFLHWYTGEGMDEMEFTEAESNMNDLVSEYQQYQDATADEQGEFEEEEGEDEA",
  "assay": "co-sedimentation; 0.1 uM recombinant RECQL4 with or without 2 uM taxol-stabilized microtubules, 15 min, 20,000 g for 10 min at RT; supernatant and pellet analysed by Coomassie staining and Western blot against His6-tag (Fig 1B)",
  "data": [
    {"substance": "Recombinant Xenopus RECQL4 expressed in insect cells (natural protein)", "values": [
      {"measurement": "percent of the protein in the pellet", "result": 100, "unit": "%"}
    ]}
  ]
}
